From IntAct's records for PubMed 25910212

B1: EF-hand domain-containing protein 1 (Homo sapiens), Q5JVL4 (parent)
chain: MVSNPVHGLPFLPGTSFKDSTKTAFHRSQTLSYRNGYAIVRRPTVGIGGDRLQFNQLSQAELDELASKAPVLTYGQPKQAPPADFIPAHVAFDKKVLKFDAYFQEDVPMSTEEQYRIRQVNIYYYLEDDSMSVIEPVVENSGILQGKLIKRQRLAKNDRGDHYHWKDLNRGINITIYGKTFRVVDCDQFTQVFLESQGIELNPPEKMALDPYTELRKQPLRKYVTPSDFDQLKQFLTFDKQVLRFYAIWDDTDSMYGECRTYIIHYYLMDDTVEIREVHERNDGRDPFPLLMNRQRVPKVLVENAKNFPQCVLEISDQEVLEWYTAKDFIVGKSLTILGRTFFIYDCDPFTRRYYKEKFGITDLPRIDVSKREPPPVKQELPPYNGFGLVEDSAQNCFALIPKAPKKDVIKMLVNDNKVLRYLAVLESPIPEDKDRRFVFSYFLATDMISIFEPPVRNSGIIGGKYLGRTKVVKPYSTVDNPVYYGPSDFFIGAVIEVFGHRFIILDTDEYVLKYMESNAAQYSPEALASIQNHVRKREAPAPEAESKQTEKDPGVQELEALIDTIQKQLKDHSCKDNIREAFQIYDKEASGYVDRDMFFKICESLNVPVDDSLVKELIRMCSHGEGKINYYNFVRAFSN

Variants of: B1
Details: with ikzf3_human IKZF3, Q9UKT9
Chain of ikzf3_human IKZF3, Q9UKT9 (Q9UKT9 whole entry): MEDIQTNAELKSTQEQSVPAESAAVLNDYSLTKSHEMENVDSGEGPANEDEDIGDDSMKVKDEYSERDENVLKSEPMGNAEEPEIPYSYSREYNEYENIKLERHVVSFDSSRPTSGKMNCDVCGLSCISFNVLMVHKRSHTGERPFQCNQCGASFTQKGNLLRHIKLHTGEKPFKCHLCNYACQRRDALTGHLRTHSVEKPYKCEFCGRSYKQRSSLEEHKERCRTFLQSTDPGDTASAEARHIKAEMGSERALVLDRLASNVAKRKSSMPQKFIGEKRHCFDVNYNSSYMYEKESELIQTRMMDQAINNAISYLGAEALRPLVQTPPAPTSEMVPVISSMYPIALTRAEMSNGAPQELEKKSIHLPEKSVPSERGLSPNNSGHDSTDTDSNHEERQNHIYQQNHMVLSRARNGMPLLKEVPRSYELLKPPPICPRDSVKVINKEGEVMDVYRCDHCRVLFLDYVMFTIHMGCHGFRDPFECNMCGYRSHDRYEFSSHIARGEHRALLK

Row | Variant | effect of a mutation on the interaction
1 | R221H | disrupting interaction strength
2 | P77T | disrupting interaction strength

More lines, now with the values ahead:

Row | effect of a mutation on the interaction | Variant
3 | disrupting interaction strength | A394S
4 | with no effect | M448T

Variants of: B1
Details: with kctd4_human KCTD4, Q8WVF5
Chain of kctd4_human KCTD4, Q8WVF5 (Q8WVF5 whole entry): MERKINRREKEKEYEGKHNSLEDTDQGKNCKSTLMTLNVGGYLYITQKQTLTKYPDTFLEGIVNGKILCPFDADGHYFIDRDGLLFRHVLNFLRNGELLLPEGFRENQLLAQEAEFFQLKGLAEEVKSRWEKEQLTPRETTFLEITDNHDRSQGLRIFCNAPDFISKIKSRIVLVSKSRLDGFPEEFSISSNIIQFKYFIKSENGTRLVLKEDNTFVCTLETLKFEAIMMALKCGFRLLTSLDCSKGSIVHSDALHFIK

Row | Variant | effect of a mutation on the interaction
5 | R221H | disrupting interaction strength
6 | P77T | disrupting interaction strength

Further lines, results first:

Row | effect of a mutation on the interaction | Variant
7 | disrupting interaction strength | A394S
8 | with no effect | M448T

Variants of: B1
Details: with rim3a_human RIMBP3, Q9UFD9
Chain of rim3a_human RIMBP3, Q9UFD9 (Q9UFD9 whole entry): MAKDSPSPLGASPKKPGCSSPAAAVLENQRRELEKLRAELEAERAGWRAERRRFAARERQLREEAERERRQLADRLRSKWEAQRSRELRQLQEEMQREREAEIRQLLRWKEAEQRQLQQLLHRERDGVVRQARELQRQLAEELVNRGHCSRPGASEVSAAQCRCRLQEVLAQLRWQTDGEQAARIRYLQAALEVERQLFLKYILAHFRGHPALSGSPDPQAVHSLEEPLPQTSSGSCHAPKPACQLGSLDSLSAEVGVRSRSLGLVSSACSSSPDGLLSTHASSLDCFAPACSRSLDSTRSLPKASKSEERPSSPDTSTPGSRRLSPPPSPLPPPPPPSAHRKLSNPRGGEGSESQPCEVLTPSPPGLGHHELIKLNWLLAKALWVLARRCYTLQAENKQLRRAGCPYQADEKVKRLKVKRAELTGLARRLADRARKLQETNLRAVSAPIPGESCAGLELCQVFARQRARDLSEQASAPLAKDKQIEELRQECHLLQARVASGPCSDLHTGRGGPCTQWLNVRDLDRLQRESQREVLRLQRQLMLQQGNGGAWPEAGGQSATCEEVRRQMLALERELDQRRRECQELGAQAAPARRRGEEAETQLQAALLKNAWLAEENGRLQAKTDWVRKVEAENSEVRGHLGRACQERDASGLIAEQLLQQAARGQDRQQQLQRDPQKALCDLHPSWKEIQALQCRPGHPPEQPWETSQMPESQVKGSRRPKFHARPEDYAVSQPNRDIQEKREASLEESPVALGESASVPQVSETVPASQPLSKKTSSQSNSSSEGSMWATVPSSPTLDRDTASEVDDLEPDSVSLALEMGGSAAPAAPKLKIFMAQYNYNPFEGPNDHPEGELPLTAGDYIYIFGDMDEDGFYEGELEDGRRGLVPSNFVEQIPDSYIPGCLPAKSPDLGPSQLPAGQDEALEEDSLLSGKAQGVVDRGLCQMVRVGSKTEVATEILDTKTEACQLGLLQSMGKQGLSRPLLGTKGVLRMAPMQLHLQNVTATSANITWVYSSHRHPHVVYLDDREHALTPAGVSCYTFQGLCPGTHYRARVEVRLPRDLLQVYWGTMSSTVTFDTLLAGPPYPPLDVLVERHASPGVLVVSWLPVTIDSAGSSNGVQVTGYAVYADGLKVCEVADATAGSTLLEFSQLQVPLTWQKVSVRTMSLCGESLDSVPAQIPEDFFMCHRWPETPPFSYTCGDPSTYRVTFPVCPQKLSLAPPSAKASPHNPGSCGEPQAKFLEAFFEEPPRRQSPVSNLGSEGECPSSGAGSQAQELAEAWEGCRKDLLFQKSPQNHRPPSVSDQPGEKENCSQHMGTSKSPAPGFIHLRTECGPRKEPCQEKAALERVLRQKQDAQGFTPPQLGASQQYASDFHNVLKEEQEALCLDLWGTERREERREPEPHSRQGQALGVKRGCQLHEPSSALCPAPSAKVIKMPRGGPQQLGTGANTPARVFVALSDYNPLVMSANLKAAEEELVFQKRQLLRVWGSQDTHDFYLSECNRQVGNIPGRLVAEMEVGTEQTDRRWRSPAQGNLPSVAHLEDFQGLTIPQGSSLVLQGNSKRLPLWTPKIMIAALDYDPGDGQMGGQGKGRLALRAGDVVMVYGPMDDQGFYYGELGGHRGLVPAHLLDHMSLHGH

Row | Variant | effect of a mutation on the interaction
9 | R221H | disrupting interaction strength
10 | P77T | disrupting interaction strength

Results, then the variant that gave them:

Row | effect of a mutation on the interaction | Variant
11 | disrupting interaction strength | A394S
12 | with no effect | M448T

Variants of: B1
Details: with trip6_human TRIP6, Q15654
Chain of trip6_human TRIP6, Q15654 (Q15654 whole entry): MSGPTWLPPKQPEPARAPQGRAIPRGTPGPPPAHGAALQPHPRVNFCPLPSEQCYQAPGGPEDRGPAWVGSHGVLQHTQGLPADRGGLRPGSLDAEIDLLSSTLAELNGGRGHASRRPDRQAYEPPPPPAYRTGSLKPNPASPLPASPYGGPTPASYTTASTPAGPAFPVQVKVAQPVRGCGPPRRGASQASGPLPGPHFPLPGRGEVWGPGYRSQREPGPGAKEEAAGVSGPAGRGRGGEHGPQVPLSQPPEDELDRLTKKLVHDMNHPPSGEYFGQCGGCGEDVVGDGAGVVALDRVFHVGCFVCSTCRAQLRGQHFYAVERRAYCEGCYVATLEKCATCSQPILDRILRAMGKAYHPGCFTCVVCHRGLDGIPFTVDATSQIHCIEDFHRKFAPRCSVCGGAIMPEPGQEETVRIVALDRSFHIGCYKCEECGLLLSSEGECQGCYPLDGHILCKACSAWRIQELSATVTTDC

Row | Variant | effect of a mutation on the interaction
13 | R221H | disrupting interaction strength
14 | P77T | disrupting interaction strength

Continued, values first:

Row | effect of a mutation on the interaction | Variant
15 | disrupting interaction strength | A394S
16 | with no effect | M448T

Variants of: B1
Details: with KRT15, P19012
Chain of KRT15, P19012 (P19012 whole entry): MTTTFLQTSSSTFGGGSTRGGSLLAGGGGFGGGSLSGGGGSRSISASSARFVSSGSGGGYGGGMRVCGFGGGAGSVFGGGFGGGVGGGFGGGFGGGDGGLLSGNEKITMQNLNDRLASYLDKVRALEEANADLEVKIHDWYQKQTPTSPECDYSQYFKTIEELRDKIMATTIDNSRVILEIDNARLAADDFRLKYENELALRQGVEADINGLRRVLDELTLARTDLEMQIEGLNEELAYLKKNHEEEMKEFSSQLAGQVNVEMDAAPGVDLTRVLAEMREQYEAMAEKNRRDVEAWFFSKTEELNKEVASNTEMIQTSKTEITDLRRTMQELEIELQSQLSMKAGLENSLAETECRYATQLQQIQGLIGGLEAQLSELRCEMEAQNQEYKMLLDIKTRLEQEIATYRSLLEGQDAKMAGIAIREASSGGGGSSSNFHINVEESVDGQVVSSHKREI

Row | Variant | effect of a mutation on the interaction
17 | R221H | disrupting interaction strength
18 | P77T | disrupting interaction strength

Continued, values first:

Row | effect of a mutation on the interaction | Variant
19 | disrupting interaction strength | A394S
20 | with no effect | M448T

Variants of: B1
Details: with TCF4, P15884-3
Chain of TCF4, P15884-3 (P15884 other isoform, or with tags, fused parts or gaps): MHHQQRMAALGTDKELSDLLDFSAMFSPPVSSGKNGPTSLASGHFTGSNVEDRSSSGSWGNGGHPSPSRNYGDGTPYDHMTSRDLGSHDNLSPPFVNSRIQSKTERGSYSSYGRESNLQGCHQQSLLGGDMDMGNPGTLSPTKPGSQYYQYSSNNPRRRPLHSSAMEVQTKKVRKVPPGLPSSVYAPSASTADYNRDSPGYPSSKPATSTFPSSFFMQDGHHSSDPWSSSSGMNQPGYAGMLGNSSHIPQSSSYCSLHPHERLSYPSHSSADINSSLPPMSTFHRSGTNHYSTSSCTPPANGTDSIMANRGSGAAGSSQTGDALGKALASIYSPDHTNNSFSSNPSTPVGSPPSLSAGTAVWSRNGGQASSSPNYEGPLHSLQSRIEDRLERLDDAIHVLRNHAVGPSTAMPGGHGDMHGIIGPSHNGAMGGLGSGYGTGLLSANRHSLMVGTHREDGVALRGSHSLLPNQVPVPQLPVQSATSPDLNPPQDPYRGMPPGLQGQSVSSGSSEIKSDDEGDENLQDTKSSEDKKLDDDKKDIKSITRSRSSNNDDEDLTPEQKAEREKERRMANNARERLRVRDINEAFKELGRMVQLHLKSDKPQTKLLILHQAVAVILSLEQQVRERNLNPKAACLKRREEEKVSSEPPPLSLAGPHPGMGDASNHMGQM

Row | Variant | effect of a mutation on the interaction
21 | R221H | disrupting interaction strength
22 | P77T | disrupting interaction strength

Continued, values first:

Row | effect of a mutation on the interaction | Variant
23 | disrupting interaction strength | A394S
24 | with no effect | M448T

Variants of: B1
Details: with goga2_human GOLGA2, Q08379
Chain of goga2_human GOLGA2, Q08379 (Q08379 whole entry): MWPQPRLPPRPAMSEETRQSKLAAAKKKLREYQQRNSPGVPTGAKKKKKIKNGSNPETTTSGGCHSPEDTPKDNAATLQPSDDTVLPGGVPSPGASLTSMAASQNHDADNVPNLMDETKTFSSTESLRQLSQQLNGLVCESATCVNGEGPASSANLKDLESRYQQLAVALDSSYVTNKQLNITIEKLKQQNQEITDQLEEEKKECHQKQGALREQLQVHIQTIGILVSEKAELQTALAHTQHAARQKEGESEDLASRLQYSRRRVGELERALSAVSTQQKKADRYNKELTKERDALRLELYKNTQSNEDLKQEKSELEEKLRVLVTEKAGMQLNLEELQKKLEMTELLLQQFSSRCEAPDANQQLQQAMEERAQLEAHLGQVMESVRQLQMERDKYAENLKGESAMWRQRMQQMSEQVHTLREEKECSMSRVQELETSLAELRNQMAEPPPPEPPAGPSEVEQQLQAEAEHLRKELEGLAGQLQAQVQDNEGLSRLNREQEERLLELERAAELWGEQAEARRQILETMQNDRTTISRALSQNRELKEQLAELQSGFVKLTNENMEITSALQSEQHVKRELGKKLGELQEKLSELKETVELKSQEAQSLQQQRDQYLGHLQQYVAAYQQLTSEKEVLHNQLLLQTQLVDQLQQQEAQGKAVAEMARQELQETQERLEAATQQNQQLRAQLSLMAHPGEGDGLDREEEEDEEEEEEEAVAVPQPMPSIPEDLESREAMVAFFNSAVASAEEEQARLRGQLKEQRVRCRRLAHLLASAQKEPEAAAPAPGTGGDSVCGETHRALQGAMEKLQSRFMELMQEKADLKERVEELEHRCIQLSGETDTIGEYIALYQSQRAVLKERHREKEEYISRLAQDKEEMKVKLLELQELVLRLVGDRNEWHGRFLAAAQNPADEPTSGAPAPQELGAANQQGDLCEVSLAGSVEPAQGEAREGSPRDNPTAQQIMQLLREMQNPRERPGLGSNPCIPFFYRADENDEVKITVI

Row | Variant | effect of a mutation on the interaction
25 | R221H | disrupting interaction strength
26 | P77T | disrupting interaction strength

Next, values leading:

Row | effect of a mutation on the interaction | Variant
27 | disrupting interaction strength | A394S
28 | with no effect | M448T
